From PMC4805503 (Traffic (Copenhagen, Denmark), 2016)
Numbering of substitutions follows the chain as printed. Names and notes keep the numbering of the source. Blank lines part the entries; values can stand above or below the molecule they belong to.

Legend:
tepsin (Homo sapiens) = tepsin (Homo sapiens) (UniProt Q96N21); conditions: cited from earlier work
[1] = molecular target: T1, AP4 β4 C-terminal appendage domain (residues 612–739), wild type (UniProt Q9Y6B7 612-739); assay: ITC
T1 sequence (looked up): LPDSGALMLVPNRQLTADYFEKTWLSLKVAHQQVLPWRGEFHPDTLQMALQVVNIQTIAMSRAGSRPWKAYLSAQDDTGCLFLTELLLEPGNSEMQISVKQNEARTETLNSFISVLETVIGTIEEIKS

[2] = molecular target: T1, AP4 β4 C-terminal appendage domain …; assay: pull-down

Molecule: AP4 ε appendage domain (from UniProt Q9UPM8)
Kd (tepsin (Homo sapiens)): 3000 nM

Kd [1]: 2900 nM
stoichiometry N [1]: 1
B1: tepsin C-terminal fragment (residues 450–500), GST removed (domain or fragment, UniProt Q96N21 450-500, looked up)
chain: PGGTDSPKRGPSSCAWSRDSLFAGMELVACPRLVGAGAAAGESCPDAPRAP

fold weaker binding than wild type [1]: ~15 fold
B2: tepsin fragment (residues 450–500) L476S/V477S, GST removed (domain or fragment, UniProt Q96N21 450-500, looked up)
chain: B1 chain with L27S, V28S

Kd [1]: > 300000 nM
B3: tepsin fragment (residues 450–500) L470S/F471S, GST removed (domain or fragment, UniProt Q96N21 450-500, looked up)
chain: B1 chain with L21S, F22S

Kd [1]: > 300000 nM
B4: tepsin fragment (residues 450–500) G473I/M474Q, GST removed (domain or fragment, UniProt Q96N21 450-500, looked up)
chain: B1 chain with G24I, M25Q

binding result [2]: binds
B5: GST-tepsin (residues 450–525) (domain or fragment, UniProt Q96N21 450-525, looked up)
chain: PGGTDSPKRGPSSCAWSRDSLFAGMELVACPRLVGAGAAAGESCPDAPRAPQTSSQRTAAKEPPGSEPSAFAFLNA
